Results on one substance are retold here after patent US20210340264A1.

The target in this test is human SSTR2 (isoform A, UniProtKB P30874) (human) (UniProt P30874). The test can be described thus: flow cytometry, BON-1 cells, same staining conditions (FIG. 10B).
Chain of human SSTR2 (P30874 whole entry, canonical isoform): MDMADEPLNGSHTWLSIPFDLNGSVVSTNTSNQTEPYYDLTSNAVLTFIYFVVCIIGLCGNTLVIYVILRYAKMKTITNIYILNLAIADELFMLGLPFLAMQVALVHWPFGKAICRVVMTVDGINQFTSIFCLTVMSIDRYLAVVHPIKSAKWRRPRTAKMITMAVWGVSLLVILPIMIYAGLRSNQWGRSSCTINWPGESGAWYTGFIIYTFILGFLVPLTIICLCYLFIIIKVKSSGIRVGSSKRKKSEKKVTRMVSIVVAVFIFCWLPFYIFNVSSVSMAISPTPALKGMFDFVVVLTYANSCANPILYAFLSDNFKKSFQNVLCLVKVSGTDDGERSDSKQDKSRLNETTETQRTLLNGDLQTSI

With “commercial anti-SSTR2 mAb (R&D Systems, Catalog# MAB4224) (antibody)”, the surface binding percentage amounted to 38%.
